Data set [1] has as its system CT-SBP2 (human). The experiment in a line: EMSA. The conditions noted are these: EMSA: 20 fmol RNA in 20 uL, 1x PBS, glycerol, 250 ug yeast tRNA, 10 mM DTT, 5 ug soybean trypsin inhibitor, 37 C 30 min, 4% native PAGE; pH not stated.
The test system of data set [2] is CT-SBP2L (human). Briefly: EMSA. The conditions noted are these: EMSA: 20 fmol RNA in 20 uL, 1x PBS, glycerol, 250 ug yeast tRNA, 10 mM DTT, 5 ug soybean trypsin inhibitor, 37 C 30 min, 4% native PAGE; pH not stated. For orientation: In EMSA bound probe runs differently from free probe, usually more slowly.

In general, Kd refers to the equilibrium constant for the complex coming apart. Lower therefore signals tighter binding. On to TR2 SECIS, for which the results for the Kd in data set [1] and in data set [2] were 11.6 nM and 54.4 nM, respectively.
The like results for GPX1 SECIS were, in that order, 6.3 nM and 112 nM.
As for SelO SECIS, the Kd came out at 7 nM in data set [1] and 58.7 nM in data set [2].
Take GPX4 SECIS: the Kd in data set [1] was 13.2 nM; in data set [2] it was 58.2 nM.
Regarding SelV SECIS, the figures for the Kd in data set [1] and in data set [2] were 6.7 nM and 12.4 nM, respectively.
As for SelP SECIS 1, the Kd in data set [1] worked out at 3.4 nM; in data set [2] it was 59.2 nM.
The like results for SelN SECIS were, in that order, 10.5 nM and 89 nM.
The like results for TR3 SECIS were, in that order, 4.2 nM and 115 nM.
For TR1 SECIS, the figures for the Kd in data set [1] and in data set [2] were 5.8 nM and 20.6 nM, respectively.
As for SelT SECIS, the figures for the Kd in data set [1] and in data set [2] were 4 nM and 102 nM, respectively.
In the case of SelP SECIS 2, the Kd was 1.6 nM in data set [1] and 27.6 nM in data set [2].
As for SelM SECIS, the Kd came out at 3 nM in data set [1] and 23.4 nM in data set [2].
In the case of GPX6 SECIS, the figures for the Kd in data set [1] and in data set [2] were 150 nM and 313 nM, respectively.
In the same order, the values of SEP15 SECIS are 5 nM and 52.9 nM.
SelI SECIS: the values for the Kd in data set [1] and in data set [2] were 12.2 nM and 59.2 nM, respectively.
DIO3 SECIS: the values for the Kd in data set [1] and in data set [2] were 5.4 nM and 55.7 nM, respectively.
Take SelK SECIS: the Kd in data set [1] was 3.6 nM; in data set [2], 32.9 nM.
On to GPX3 SECIS, for which the Kd in data set [1] was 25 nM; in data set [2] it was 135 nM.
The like results for DIO2 SECIS were, in that order, 6.8 nM and 71.3 nM.
Take SelR SECIS: the Kd in data set [1] is 9.7 nM; in data set [2], 196 nM.
With SelS SECIS, the Kd in data set [1] is 25.9 nM; in data set [2], 93 nM.
In the same order, the values of SelW SECIS are 4 nM and 87.7 nM.
On to DIO1 SECIS, for which the Kd stood at 2.7 nM in data set [1] and 19.9 nM in data set [2].
Turning to SPS2 SECIS, the Kd in data set [1] is 7.5 nM; in data set [2], 129 nM.
For the substance GPX2 SECIS, the Kd in data set [1] was determined as 10.9 nM; in data set [2], 135 nM.
For SelH SECIS, the dissociation constant Kd in data set [1] is 4.7 nM; in data set [2], 102 nM.

The values above are taken from article PMC3328465.
